Measured values: US20150010525A1, “Catalytic Tagging System to Study Macro-Molecular Interactions Using Engineered Ubiquitin Ligase and Ubiquitin-Like Proteins to Facilitate Substrate Identification” (THE REGENTS OF THE UNIVERSITY OF CALIFORNIA, priority 2012, published 2015)

B1: Elongation factor 1-alpha 1: potential cIAP1 substrate (protein, UniProt P68104 2-462, looked up)
Elongation factor 1-alpha 1: GKEKTHINIVVIGHVDSGKSTTTGHLIYKCGGIDKRTIEKFEKEAAEMGKGSFKYAWVLDKLKAERERGITIDISLWKFETSKYYVTIIDAPGHRDFIKNMITGTSQADCAVLIVAAGVGEFEAGISKNGQTREHALLAYTLGVKQLIVGVNKMDSTEPPYSQKRYEEIVKEVSTYIKKIGYNPDTVAFVPISGWNGDNMLEPSANMPWFKGWKVTRKDGNASGTTLLEALDCILPPTRPTDKPLRLPLQDVYKIGGIGTVPVGRVETGVLKPGMVVTFAPVNVTTEVKSVEMHHEALSEALPGDNVGFNVKNVSVKDVRRGNVAGDSKNDPPMEAAGFTAQVIILNHPGQISAGYAPVLDCHTAHIACKFAELKEKIDRRSGKKLEDGPKFLKSGDAAIVDMVPGKPMCVESFSDYPPLGRFAVRDMRQTVAVGVIKAVDKKAAGAGKVTKSAQKAQKAK
B2: Acetyl-CoA acetyltransferase, mitochondrial: potential cIAP1 substrate (protein, UniProt P24752 34-427, looked up)
Acetyl-CoA acetyltransferase, …: VSKPTLKEVVIVSATRTPIGSFLGSLSLLPATKLGSIAIQGAIEKAGIPKEEVKEAYMGNVLQGGEGQAPTRQAVLGAGLPISTPCTTINKVCASGMKAIMMASQSLMCGHQDVMVAGGMESMSNVPYVMNRGSTPYGGVKLEDLIVKDGLTDVYNKIHMGSCAENTAKKLNIARNEQDAYAINSYTRSKAAWEAGKFGNEVIPVTVTVKGQPDVVVKEDEEYKRVDFSKVPKLKTVFQKENGTVTAANASTLNDGAAALVLMTADAAKRLNVTPLARIVAFADAAVEPIDFPIAPVYAASMVLKDVGLKKEDIAMWEVNEAFSLVVLANIKMLEIDPQKVNINGGAVSLGHPIGMSGARIVGHLTHALKQGEYGLASICNGGGGASAMLIQKL
B3: Rho GDP-dissociation inhibitor 2: potential cIAP1 substrate (protein, UniProt P52566 2-201, looked up)
Rho GDP-dissociation …: TEKAPEPHVEEDDDDELDSKLNYKPPPQKSLKELQEMDKDDESLIKYKKTLLGDGPVVTDPKAPNVVVTRLTLVCESAPGPITMDLTGDLEALKKETIVLKEGSEYRVKIHFKVNRDIVSGLKYVQHTYRTGVKVDKATFMVGSYGPRPEEYEFLTPVEEAPKGMLARGTYHNKSFFTDDDKQDHLSWEWNLSIKKEWTE
B4: Putative annexin A2-like protein: potential cIAP1 substrate (protein, UniProt A6NMY6 2-339, looked up)
Putative annexin A2-like …: STVHEILCKLSLEGDHSTPPSAYGSVKAYTNFDAERDALNIETAIKTKGVDEVTIVNIVTNRDNAQRQDIVFSYQRRTKKELASALKSALSGHLETVILGLLKTPAQYDASELKASMKGLGTDEDSLIEIICSRTNQELQEINRVYKEMYKTDLEKDIISDTSGDFRKLMVALAKGRRAEDGSVIDYELIDQDAQDLYDAGVKRKGTDVPKWISIMTERSVPHLQKVFDRYKSYSPYDMLESIRKEVKGDLENAFLNLVQRIQNKPLYFADQLYDSMKGKGTRDKVLIRIMVSRSEVDMLKIRSEFKRKYGKSLYYYIQQDTKGDYQKALLYLCGGDD
B5: Medium-chain specific acyl-CoA dehydrogenase, mitochondrial: potential cIAP1 substrate (protein, UniProt P11310 26-421, looked up)
Medium-chain specific …: KANRQREPGLGFSFEFTEQQKEFQATARKFAREEIIPVAAEYDKTGEYPVPLIRRAWELGLMNTHIPENCGGLGLGTFDACLISEELAYGCTGVQTAIEGNSLGQMPIIIAGNDQQKKKYLGRMTEEPLMCAYCVTEPGAGSDVAGIKTKAEKKGDEYIINGQKMWITNGGKANWYFLLARSDPDPKAPANKAFTGFIVEADTPGIQIGRKELNMGQRCSDTRGIVFEDVKVPKENVLIGDGAGFKVAMGAFDKTRPVVAAGAVGLAQRALDEATKYALERKTFGKLLVEHQAISFMLAEMAMKVELARMSYQRAAWEVDSGRRNTYYASIAKAFAGDIANQLATDAVQILGGNGFNTEYPVEKLMRDAKIYQIYEGTSQIQRLIVAREHIDKYKN
B6: Heterogeneous nuclear ribonucleoprotein A0: potential cIAP1 substrate (protein, UniProt Q13151 1-305, looked up)
Heterogeneous nuclear …: MENSQLCKLFIGGLNVQTSESGLRGHFEAFGTLTDCVVVVNPQTKRSRCFGFVTYSNVEEADAAMAASPHAVDGNTVELKRAVSREDSARPGAHAKVKKLFVGGLKGDVAEGDLIEHFSQFGTVEKAEIIADKQSGKKRGFGFVYFQNHDAADKAAVVKFHPIQGHRVEVKKAVPKEDIYSGGGGGGSRSSRGGRGGRGRGGGRDQNGLSKGGGGGYNSYGGYGGGGGGGYNAYGGGGGGSSYGGSDYGNGFGGFGSYSQHQSSYGPMKSGGGGGGGGSSWGGRSNSGPYRGGYGGGGGYGGSSF
B7: Pre-mRNA-processing factor 19: potential cIAP1 substrate (protein, UniProt Q9UMS4 2-504, looked up)
Pre-mRNA-processing factor 19: SLICSISNEVPEHPCVSPVSNHVYERRLIEKYIAENGTDPINNQPLSEEQLIDIKVAHPIRPKPPSATSIPAILKALQDEWDAVMLHSFTLRQQLQTTRQELSHALYQHDAACRVIARLTKEVTAAREALATLKPQAGLIVPQAVPSSQPSVVGAGEPMDLGELVGMTPEIIQKLQDKATVLTTERKKRGKTVPEELVKPEELSKYRQVASHVGLHSASIPGILALDLCPSDTNKILTGGADKNVVVFDKSSEQILATLKGHTKKVTSVVFHPSQDLVFSASPDATIRIWSVPNASCVQVVRAHESAVTGLSLHATGDYLLSSSDDQYWAFSDIQTGRVLTKVTDETSGCSLTCAQFHPDGLIFGTGTMDSQIKIWDLKERTNVANFPGHSGPITSIAFSENGYYLATAADDSSVKLWDLRKLKNFKTLQLDNNFEVKSLIFDQSGTYLALGGTDVQIYICKQWTEILHFTEHSGLTTGVAFGHHAKFIASTGMDRSLKFYSL
B8: Isocitrate dehydrogenase [NADP], mitochondrial: potential cIAP1 substrate (protein, UniProt P48735 40-452, looked up)
Isocitrate dehydrogenase …: ADKRIKVAKPVVEMDGDEMTRIIWQFIKEKLILPHVDIQLKYFDLGLPNRDQTDDQVTIDSALATQKYSVAVKCATITPDEARVEEFKLKKMWKSPNGTIRNILGGTVFREPIICKNIPRLVPGWTKPITIGRHAHGDQYKATDFVADRAGTFKMVFTPKDGSGVKEWEVYNFPAGGVGMGMYNTDESISGFAHSCFQYAIQKKWPLYMSTKNTILKAYDGRFKDIFQEIFDKHYKTDFDKNKIWYEHRLIDDMVAQVLKSSGGFVWACKNYDGDVQSDILAQGFGSLGLMTSVLVCPDGKTIEAEAAHGTVTRHYREHQKGRPTSTNPIASIFAWTRGLEHRGKLDGNQDLIRFAQMLEKVCVETVESGAMTKDLAGCIHGLSNVKLNEHFLNTTDFLDTIKSNLDRALGRQ

target: T1, cIAP1 (Homo sapiens, UniProt P61081+Q13490); experiment: SILAC mass spectrometry screen for cIAP1 substrates with NEDDylator^cIAP1 in apoptotic Jurkat cell lysate; type: biochemical; conditions: Light lysate with NEDDylator^cIAP1, Heavy lysate with Ubc12
T1 construct: cIAP1(ΔR) (residues 1-555); GST (N, cleaved yes); made in house; host or cells: E. coli BL21 (DE3)
Description: Jurkat cells were grown in media containing either light or heavy isotopes of lysine and arginine and induced to undergo apoptosis with STS. Light cell extracts were incubated with the respective catalytic tagging system for each of the two IAPs and the heavy extracts labeled only with the wild-type NEDD8 E2, Ubc12. […] 100 mg ^13C6^15N2 L-Lys.2HCl and 86 mg ^13C6 L-Arg.HCl (Cambridge Isotope) were added to the same amount of medium to generate the “Heavy” medium. Jurkat cells were cultured separately in “Light” or “Heavy” medium for 7 days to allow for thorough isotope incorporation. For IAP substrate identification, 400 million cells were treated with 2 μM STS for 4 hours, harvested, lysed in M-PER mammalian protein extraction buffer (Thermo/Pierce) in the presence of protease inhibitors (100× ProteoBlock cocktail, Fermentas) and mixed with cell lysate prepared from 400 million untreated cells. […] Purified NEDDylated proteins were trypsinized and analyzed with tandem mass spectrometry (LC-MS/MS).
For SILAC experiments, Jurkat cells were cultured separately in “Light” (supplemented with regular Lys and Arg) or “Heavy” (supplemented with ^13C6^15N2 Lys and ^13C6 Arg) medium for 7 days to allow for thorough isotope incorporation. Apoptotic “Light” and “Heavy” cell extracts were prepared individually. The lysates were cleared by spinning and then diluted in 50 mM HEPES pH 7.4, 150 mM NaCl to 5 mg/ml and supplemented with 5 mM ATP, 10 mM MgCl2. Endogenous NEDD8 E1 is cell lysate was used to catalyze the reaction. HB-NEDD8 was added to both lysate at mass ratio 1:500; the catalytic tagging system was added to the “Light” lysate at mass ratio 1:1000. Equal molar of Ubc12 was added to the “Heavy” lysate. […] NEDDylated proteins were separated by one-dimensional SDS-PAGE, and trypsinized for LC-MS/MS analysis.
For liquid chromatography—Tandem mass spectrometry (LC-MS/MS) analysis, the tryptic peptides were first desalted and concentrated with a C18 Ziptip (Millipore). LC-MS/MS was carried out by reverse phase LC interfaced with a LTQ-Orbitrap (ThermoFisher Scientific) hybrid mass spectrometer. A nanoflow HPLC (NanoAcquity UPLC system, Waters Corporation) was equipped with a trap column (180 μm×20 mm, 5 μm SymmetryC18, from Waters) and an analytical column (100 μm×100 mm, 1.7 μm BEH130C18, from Waters). Peptides were eluted over a linear gradient from 2% solvent A (0.1% formic acid in water) to 35% solvent B (0.1% formic acid in acetonitrile) at 350 nL/min over 35 min. MS and MS/MS spectra were acquired in a data-dependent mode with MS spectra acquired in the Orbitrap at 30,000 resolving power and 6 CID MS/MS spectra acquired per MS in the LTQ linear ion trap. Dynamic exclusion was set at 90 seconds to prevent repeated MS/MS on the same precursor ion.
The identified peptides were searched against a random decoy protein database for evaluating the false positive rates. […] The decoy peptides were removed from the data. Protein IDs were assigned only when at least two unique peptides were identified from the same protein. For SILAC experiment, Light/Heavy ratios for the identified peptides were calculated, using ProteinProspector. The media Light/Heavy ratios of all the peptides identified for each protein were used to represent the Light/Heavy ratio of the protein.

T1 sequence (Q13490+P61081 fused): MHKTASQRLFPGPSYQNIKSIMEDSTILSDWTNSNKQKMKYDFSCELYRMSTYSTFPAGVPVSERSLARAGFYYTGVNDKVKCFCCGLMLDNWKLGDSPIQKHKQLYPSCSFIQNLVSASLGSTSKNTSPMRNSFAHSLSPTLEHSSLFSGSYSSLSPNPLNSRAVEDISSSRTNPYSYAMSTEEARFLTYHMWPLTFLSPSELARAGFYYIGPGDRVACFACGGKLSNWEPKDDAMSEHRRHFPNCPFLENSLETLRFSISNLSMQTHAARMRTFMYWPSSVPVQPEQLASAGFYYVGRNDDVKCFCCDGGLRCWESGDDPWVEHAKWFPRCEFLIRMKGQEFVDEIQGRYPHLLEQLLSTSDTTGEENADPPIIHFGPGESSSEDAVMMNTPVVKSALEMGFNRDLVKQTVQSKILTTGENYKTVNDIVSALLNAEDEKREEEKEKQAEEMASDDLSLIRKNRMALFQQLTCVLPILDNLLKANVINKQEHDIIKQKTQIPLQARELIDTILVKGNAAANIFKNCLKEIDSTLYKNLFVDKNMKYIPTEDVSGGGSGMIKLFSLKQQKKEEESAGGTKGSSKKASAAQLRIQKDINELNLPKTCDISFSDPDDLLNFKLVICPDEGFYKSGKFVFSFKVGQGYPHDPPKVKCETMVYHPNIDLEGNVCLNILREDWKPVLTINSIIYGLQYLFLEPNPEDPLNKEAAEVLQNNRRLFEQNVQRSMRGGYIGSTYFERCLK

Compared with “Hemoglobin subunit alpha: potential cIAP1 substrate”, “TAR DNA-binding protein 43: potential cIAP1 substrate” is higher in “L/H (Light/Heavy ratio)” value: 5.22 for the first, 26.9 for the second.

First: Glyceraldehyde-3-phosphate dehydrogenase: potential cIAP1 substrate
Second: Isocitrate dehydrogenase [NAD] subunit beta, mitochondrial: potential cIAP1 substrate
The “L/H (Light/Heavy ratio)” value of the first is lower: 5.21 for the first, 14 for the second.

Compared with “Non-POU domain-containing octamer-binding protein: potential cIAP1 substrate”, “ELAV-like protein 1: potential cIAP1 substrate” is higher in “L/H (Light/Heavy ratio)” value: 7.52 for the first, 8.78 for the second.

Going from “Heterogeneous nuclear ribonucleoprotein U: potential cIAP1 substrate” to “Eukaryotic initiation factor 4A-I: potential cIAP1 substrate”, the “L/H (Light/Heavy ratio)” value rises from 4.15 to 5.31.

Going from B1 to B2, the “L/H (Light/Heavy ratio)” value rises from 4.4 to 5.67.

Going from B3 to B4, the “L/H (Light/Heavy ratio)” value falls from 8.76 to 8.75.

Compared with B5, B6 is higher in “L/H (Light/Heavy ratio)” value: 6.17 for the first, 20.7 for the second.

Compared with B7, B8 is lower in “L/H (Light/Heavy ratio)” value: 22.2 for the first, 6.51 for the second.
